The test system of one data set is MCF7. Kind of data set: percentage of EdU-negative (G0-arrested) nuclei per well, 72 h; higher = more G0 arrest. The note with it: reference: sequence is the full UniProt precursor, the tested protein was the secreted form or ectodomain.
The next data set concerns hTERT-HMEC. The data set is described as above. The note with it: reference: sequence is the full UniProt precursor, the tested protein was the secreted form or ectodomain.
Setting [1] is: protein concentration 0.0225 µM.
[2] abbreviates: protein concentration 0.0122857 µM.
Setting [3] is: protein concentration 0.122857 µM.
The mark [4] stands for this setting: protein concentration 0.0225714 µM.
Where [5] appears, read: protein concentration 0.225714 µM.
The mark [6] stands for this setting: protein concentration 0.0284475 µM.
The mark [7] stands for this setting: protein concentration 0.284475 µM.

± gives the standard deviation of the averaged measurements.
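Note: secreted proteins added to cultured cells, EdU pulse at the end, nuclei found by Hoechst imaging, EdU status from nuclear versus surrounding ring intensity ratio, PBS as neutral control.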

With “MPRCRWLSLILLTIPLALVARKDPKKNETGVLRKLKPVNASNANVKQCLWFAMQEYNKESEDKYVFLVVKTLQAQLQVTNLLEYLIDVEIARSDCRKPLSTNEICAIQENSKLKRKLSCSFLVGALPWNGEFTVMEKKCEDA”, the “percentage of EdU-negative” value worked out at 27.2 ± 1.2% in the data set on MCF7 (setting [1]), 25.6 ± 1.6% in the data set on MCF7 (protein concentration 0.225 µM), 5.21 ± 1.2% in the data set on hTERT-HMEC (setting [1]) and 4.56 ± 0.34% with hTERT-HMEC (protein concentration 0.225 µM).

Regarding “MPRGFTWLRYLGIFLGVALGNEPLEMWPLTQNEECTVTGFLRDKLQYRSRLQYMKHYFPINYKISVPYEGVFRIANVTRLQRAQVSERELRYLWVLVSLSATESVQDVLLEGHPSWKYLQEVETLLLNVQQGLTDVEVSPKVESVLSLLNAPGPNLKLVRPKALLDNCFRVMELLYCSCCKQSSVLNWQDCEVPSPQSCSPEPSLQYAATQLYPPPPWSPSSPPHSTGSVRPVRAQGEGLLP [Q6ZMJ4]”, the “percentage of EdU-negative” value in the data set on MCF7 (setting [2]) was 25.6 ± 1.6%; in the data set with MCF7 (setting [3]), 27.7 ± 1.3%; in the data set on hTERT-HMEC (setting [2]), 4.75 ± 0.29%; in the data set on hTERT-HMEC (setting [3]) it was 18.4 ± 1.3%.

For the sequence “MPRLSLLLPLLLLLLLPLLPPLSPSLGIRDVGGRRPKCGPCRPEGCPAPAPCPAPGISALDECGCCARCLGAEGASCGGRAGGRCGPGLVCASQAAGAAPEGTGLCVCAQRGTVCGSDGRSYPSVCALRLRARHTPRAHPGHLHKARDGPCEFAPVVVVPPRSVHNVTGAQVGLSCEVRAVPTPVITWRKVTKSPEGTQALEELPGDHVNIAVQVRGGPSDHEATAWILINPLRKEDEGVYQCHAANMVGEAESHSTVTVLDLSKYRSFHFPAPDDRM [Q8WX77]”, the “percentage of EdU-negative” value in the data set on MCF7 (setting [4]) turned out to be 27.4 ± 0.89%; with MCF7 (setting [5]), 29.2 ± 0.86%; in the data set on hTERT-HMEC (setting [4]) it was 4.78 ± 0.086%; in the data set with hTERT-HMEC (setting [5]) it was 4.6 ± 1.4%.

With “MPRPAPARRLPGLLLLLWPLLLLPSAAPDPVARPGFRRLETRGPGGSPGRRPSPAAPDGAPASGTSEPGRARGAGVCKSRPLDLVFIIDSSRSVRPLEFTKVKTFVSRIIDTLDIGPADTRVAVVNYASTVKIEFQLQAYTDKQSLKQAVGRITPLSTGTMSGLAIQTAMDEAFTVEAGAREPSSNIPKVAIIVTDGRPQDQVNEVAARAQASGIELYAVGVDRADMASLKMMASEPLEEHVFYVETYGVIEKLSSRFQETFCALDPCVLGTHQCQHVCISDGEGKHHCECSQGYTLNADKKTCSALDRCALNTHGCEHICVNDRSGSYHCECYEGYTLNEDRKTCSAQDKCALGTHGCQHICVNDRTGSHHCECYEGYTLNADKKTCSVRDKCALGSHGCQHICVSDGAASYHCDCYPGYTLNEDKKTCSATEEARRLVSTEDACGCEATLAFQDKVSSYLQRLNTKLDDILEKLKINEYGQIHR”, the “percentage of EdU-negative” value in the data set with MCF7 (setting [1]) was 22.2 ± 2.4%; in the data set with MCF7 (protein concentration 0.225 µM), 26.2 ± 2%; with hTERT-HMEC (setting [1]), 4.9 ± 0.095%; with hTERT-HMEC (protein concentration 0.225 µM) it was 5.61 ± 0.67%.

Turning to “MPRQLSAAAALFASLAVILHDGSQMRAKAFPETRDYSQPTAAATVQDIKKPVQQPAKQAPHQTLAARFMDGHITFQTAATVKIPTTTPATTKNTATTSPITYTLVTTQATPNNSHTAPPVTEVTVGPSLAPYSLPPTITPPAHTTGTSSSTVSHTTGNTTQPSNQTTLPATLSIALHKSTTGQKPVQPTHAPGTTAAAHNTTRTAAPASTVPGPTLAPQPSSVKTGIYQVLNGSRLCIKAEMGIQLIVQDKESVFSPRRYFNIDPNATQASGNCGTRKSNLLLNFQGGFVNLTFTKDEESYYISEVGAYLTVSDPETIYQGIKHAVVMFQTAVGHSFKCVSEQSLQLSAHLQVKTTDVQLQAFDFEDDHFGNVDECSSDYTIVLPVIGAIVVGLCLMGMGVYKIRLRCQSSGYQRI [Q9UQV4]”, the “percentage of EdU-negative” value in the data set with MCF7 (setting [6]) came out at 25.5 ± 0.37%; with MCF7 (setting [7]), 26.2 ± 0.31%; with hTERT-HMEC (setting [6]), 5.03 ± 0.35%; with hTERT-HMEC (setting [7]), 5.04 ± 0.52%.

As to “MPRRGYSKPGSWGSFWAMLTLVGLVTHAAQRADVGGEAAGTSINHSQAVLQRLQELLRQGNASDVVLRVQAAGTDEVRVFHAHRLLLGLHSELFLELLSNQSEAVLQEPQDCAAVFDKFIRYLYCGELTVLLTQAIPLHRLATKYGVSSLQRGVADYMRAHLAGGAGPAVGWYHYAVGTGDEALRESCLQFLAWNLSAVAASTEWGAVSPELLWQLLQRSDLVLQDELELFHALEAWLGRARPPPAVAERALRAIRYPMIPPAQLFQLQARSAALARHGPAVADLLLQAYQFHAASPLHYAKFFDVNGSAFLPRNYLAPAWGAPWVINNPARDDRSTSFQTQLGPSGHDAGRRVTWNVLFSPRWLPVSLRPVYADAAGTALPAARPEDGRPRLVVTPASSGGDAAGVSFQKTVLVGARQQGRLLVRHAYSFHQSSEEAGDFLAHADLQRRNSEYLVENALHLHLIVKPVYHTLIRTPK [A6NE02]”, the “percentage of EdU-negative” value in the data set on MCF7 (protein concentration 0.006 µM) amounted to 26.7 ± 0.63%; in the data set on MCF7 (protein concentration 0.06 µM), 26.1 ± 1.3%; in the data set with hTERT-HMEC (protein concentration 0.006 µM) it was 5.11 ± 0.82%; in the data set with hTERT-HMEC (protein concentration 0.06 µM), 10 ± 0.96%.
